Reference: patent US20180148485A1 (Pieris, published 2018)
Where two headings read alike, the source gives them in different places.

Legend:
[1] = target: T1, recombinant human GPC3 (R&D Systems #2119-GP-050/CF) (human, UniProt P51654 25-559); experiment: ELISA, GPC3 coated, anti-NGAL-HRP detection
T1 construct: also called Glypican-3; biotinylated human GPC3
Source text: (§1) GPC3 was coated on a microtiter plate and the tested molecules were titrated. Bound molecules were detected via an HRP-labeled anti-human NGAL-specific antibody as described in Example 12. The data was fitted with a 1:1 binding model with EC50 value and the maximum signal as free parameters, and a slope that was fixed to unity.

[2] = target: T2, recombinant human CD137-Fc fusion protein (#838-4B-100, R&D Systems) (human, UniProt Q07011 24-186); experiment: ELISA, CD137-Fc coated, anti-human IgG-HRP detection
T2 construct: also called Fc-fusion of human CD137; not shown: Fc part of the bought fusion protein, not described
Protocol: The antibody of SEQ ID NOs: 34 and 35 served as the positive control. The target was dissolved in PBS (1 μg/mL) and coated overnight on microtiter plates at 4° C. The plate was washed after each incubation step with 100 μL PBS-T five times. The plates were blocked with 2% BSA (w/v) in PBS-T for 1 h at room temperature and subsequently washed. Different concentrations of the CD137-specific antibody or the fusion polypeptides were added to the wells and incubated for 1 h at room temperature, followed by a wash step. Bound fusion protein was detected after incubation for 1 h at room temperature with 1:5000 diluted mouse anti-human IgG Fab antibody conjugated to HRP (Jackson Laboratories) in PBS-TB. After an additional wash step, fluorogenic HRP substrate (QuantaBlu, Thermo) was added to each well and the fluorescence intensity was detected using a fluorescence microplate reader.
The result of the experiment is depicted in FIG. 3, together with the fit curves resulting from a 1:1 binding sigmoidal fit, where the EC50 value and the maximum signal were free parameters, and the slope was fixed to unity.

[3] = target: T2, recombinant human CD137-Fc fusion …; experiment: SPR, biotinylated CD137-Fc captured on CAP chip, 1:1 model, apparent affinity
Protocol: Briefly, biotinylated CD137-Fc was captured on a sensor chip CAP and four dilutions (20, 5, 1.3 and 0.3 nM) of each tested agent (fusion protein or SEQ ID NOs: 34 and 35) were prepared in running buffer and applied to the chip surface. Applying a flow rate of 30 μL/min, the sample contact time was 180 s and dissociation time was 600 s. All measurements were otherwise performed and analyzed as described in Example 5.

[4] = target: T2, recombinant human CD137-Fc fusion …; experiment: ELISA, CD137-Fc coated, as described in Example 3
[5] = target: T2, recombinant human CD137-Fc fusion …; experiment: dual-binding ELISA: CD137-Fc coated, fusion titrated, biotinylated GPC3 detected with Extravidin-HRP
Protocol: FIG. 16: provides a representative experiment in which the ability of two bispecific fusion polypeptides of SEQ ID NO: 46 and SEQ ID NO: 47 to bind the targets, GPC3 and CD137, simultaneously was determined. Recombinant CD137-Fc fusion protein was coated on a microtiter plate, followed by a titration of the fusion protein. Subsequently, a constant concentration of biotinylated human GPC3 was added, which was detected via HRP-labeled extravidin as described in Example 16. The data was fitted with a 1:1 binding model with EC50 value and the maximum signal as free parameters, and a slope that was fixed to unity.
The result of the experiment is depicted in FIG. 16, together with the fit curves resulting from a 1:1 binding sigmoidal fit, where the EC50 value and the maximum signal were free parameters, and the slope was fixed to unity.

[6] = target: T2, recombinant human CD137-Fc fusion …; experiment: SPR, CD137-Fc captured by anti-human Fc antibody on CM5 chip, 1:1 model
Protocol: Binding affinities of the CD137-binding lipocalin mutein and the bispecific polypeptides of SEQ ID NO: 46 and SEQ ID NO: 47 to recombinant human CD137-Fc fusion protein (#838-4B-100, R&D Systems) were determined by Surface Plasmon Resonance using a Biacore T200 instrument (GE Healthcare) in analogy to Example 6. Prior to the SPR affinity assay, a CM5 sensor chip was derivatized with an anti-human Fc antibody using the Human Antibody Capture Kit (GE Healthcare # BR-1008-39) according to the manufacturer's instructions.
Four different concentrations (1000 nM, 200 nM, 40 nM and 8 nM) of the bispecific polypeptides were prepared in running buffer (10 mM HEPES, 150 mM NaCl, 0.05% v/v Surfactant P20, 3 mM EDTA, pH 7.4 (GE Healthcare)) and applied to the chip surface. Applying a flow rate of 30 μL/min, the sample contact time was 180 s and dissociation time was 600 s. All measurements were performed at 25° C. […] Prior to the protein measurements three regeneration cycles were performed for conditioning purposes. Data were evaluated with Biacore T200 Evaluation software (V 2.0). Double referencing was used and the 1:1 Binding model was used to fit the raw data.

[7] = target: T1, recombinant human GPC3 (R&D Systems …); experiment: ELISA, GPC3 coated, anti-NGAL-HRP detection; remark: listed apart in the source
Source text: as §1, with “human” for “anti-human”, “14.” for “12.”

[8] = target: T1, recombinant human GPC3 (R&D Systems …); experiment: SPR, biotinylated fusion captured on CAP chip, GPC3 as analyte (11-300 nM)
Protocol: The data were double-referenced by subtraction of the corresponding signals measured for the control channel (loaded with Biotin CAPture reagent only) and by subtraction of buffer injections from the binding responses. Association rate constant kₐ and dissociation rate constant kd for the binding reaction were determined using Biacore T200 Evaluation Software V2.0 for data processing and kinetic fitting.

T1 sequence (P51654 25-559 limits assumed): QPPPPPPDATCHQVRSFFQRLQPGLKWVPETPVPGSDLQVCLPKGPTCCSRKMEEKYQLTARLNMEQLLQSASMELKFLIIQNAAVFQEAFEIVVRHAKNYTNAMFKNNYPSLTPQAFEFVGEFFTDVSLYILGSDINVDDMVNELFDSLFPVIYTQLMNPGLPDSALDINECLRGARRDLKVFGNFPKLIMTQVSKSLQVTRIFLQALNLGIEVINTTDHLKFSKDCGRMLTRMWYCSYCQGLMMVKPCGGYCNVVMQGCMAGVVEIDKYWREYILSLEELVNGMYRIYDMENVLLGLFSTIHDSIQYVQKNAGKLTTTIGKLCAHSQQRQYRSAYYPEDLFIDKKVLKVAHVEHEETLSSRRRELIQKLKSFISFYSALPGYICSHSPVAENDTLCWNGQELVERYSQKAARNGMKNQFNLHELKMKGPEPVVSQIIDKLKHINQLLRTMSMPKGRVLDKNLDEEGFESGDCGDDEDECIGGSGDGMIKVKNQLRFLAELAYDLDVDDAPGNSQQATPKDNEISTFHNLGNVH

B1: fusion polypeptide of SEQ ID NOs: 53 and 54 (bispecific antibody, human IgG2, lambda)
chain 1: EVQLVQSGAEVKKPGESLRISCKGSGYSFSTYWISWVRQMPGKGLEWMGKIYPGDSYTNYSPSFQGQVTISADKSISTAYLQWSSLKASDTAMYYCARGYGIFDYWGQGTLVTVSSASTKGPSVFPLAPCSRSTSESTAALGCLVKDYFPEPVTVSWNSGALTSGVHTFPAVLQSSGLYSLSSVVTVPSSNFGTQTYTCNVDHKPSNTKVDKTVERKCCVECPPCPAPPVAGPSVFLFPPKPKDTLMISRTPEVTCVVVDVSHEDPEVQFNWYVDGVEVHNAKTKPREEQFNSTFRVVSVLTVVHQDWLNGKEYKCKVSNKGLPAPIEKTISKTKGQPREPQVYTLPPSREEMTKNQVSLTCLVKGFYPSDIAVEWESNGQPENNYKTTPPMLDSDGSFFLYSKLTVDKSRWQQGNVFSCSVMHEALHNHYTQKSLSLSPGKGGGGSGGGGSGGGGSQDSTSDLIPAPPLSKVPLQQNFQDNQFQGKWYVVGRAGNVGLREDKDPPKMWATIYELKEDKSYDVTNVRFARKKCTYSIGTFVPGSQPGEFTLGQIKSEPGGTANLVRVVSTNYNQHAMVFFKEVYQNREIFFIILYGRTKELTSELKENFIRFSKSLGLPENHIVFPVPIDQCIDG
chain 2: SYELTQPPSVSVSPGQTASITCSGDNIGDQYAHWYQQKPGQSPVLVIYQDKNRPSGIPERFSGSNSGNTATLTISGTQAMDEADYYCATYTGFGSLAVFGGGTKLTVLGQPKAAPSVTLFPPSSEELQANKATLVCLISDFYPGAVTVAWKADSSPVKAGVETTTPSKQSNNKYAASSYLSLTPEQWKSHRSYSCQVTHEGSTVEKTVAPTECS
EC50 [1]: 0.62 nM

B2: CD137-specific antibody of SEQ ID NOs: 34 and 35 (antibody, human IgG4 S228P, kappa, V domains shown)
VH: QVQLQQWGAGLLKPSETLSLTCAVYGGSFSGYYWSWIRQSPEKGLEWIGEINHGGYVTYNPSLESRVTISVDTSKNQFSLKLSSVTAADTAVYYCARDYGPGNYDWYFDLWGRGTLVTVSS
VL: EIVLTQSPATLSLSPGERATLSCRASQSVSSYLAWYQQKPGQAPRLLIYDASNRATGIPARFSGSGSGTDFTLTISSLEPEDFAVYYCQQRSNWPPALTFGGGTKVEIKR
notes: also called antibody 20H4.9
EC50 [2]: 1.5 nM | Kd [3]: 0.092 nM

B3: bispecific fusion polypeptide of SEQ ID NO: 46 (designed binder)
chain: QDSTSDLIPAPPLSKVPLQQNFQDNQFQGKWYVVGVAGNGMLREDKDPLKMRATIYELKEDKSYDVTSVAFRNKKCHYKIGTFVPGSQPGEFTLGQIKSGPGETSNLVRVVSTNYNQHAMVFFKEVRQNREWFFITLYGRTKELTSELKENFIRFSKSLGLPENHIVFPVPIDQCIDGGGGGSGGGGSQDSTSDLIPAPPLSKVPLQQNFQDNQFHGKWYVVGQAGNIRLREDKDPIKMMATIYELKEDKSYDVTMVKFDDKKCMYDIWTFVPGSQPGEFTLGKIKSFPGHTSSLVRVVSTNYNQHAMVFFKFVFQNREEFYITLYGRTKELTSELKENFIRFSKSLGLPENHIVFPVPIDQCIDG
EC50 [4]: 0.2 nM | EC50 [5]: 7.3 nM | Kd [6]: 0.0016 nM | EC50 [7]: 0.14 nM | Kd [8]: 4.3 nM

B4: bispecific fusion polypeptide of SEQ ID NO: 47 (designed binder)
chain: QDSTSDLIPAPPLSKVPLQQNFQDNQFQGKWYVVGVAGNGMLREDKDPLKMRATIYELKEDKSYDVTSVAFRNKKCHYKIGTFVPGSQPGEFTLGQIKSGPGETSNLVRVVSTNYNQHAMVFFKEVRQNREWFFITLYGRTKELTSELKENFIRFSKSLGLPENHIVFPVPIDQCIDGGGGGSGGGGSQDSTSDLIPAPPLSKVPLQQNFQDNQFHGKWYVVGQAGNIRLREDKDPIKMMATIYELKEDKSYDVTMVKFDDKKCMYDIWTFVPGSQPGEFTLGKIKSFPGHTSSLVRVVSTNYNQHAMVFFKFVFQNREEFYITLYGRTKELTSELKENFIRFSKSLGLPENHIVFPVPIDQCIDGGGGGSGGGGSQDSTSDLIPAPPLSKVPLQQNFQDNQFHGKWYVVGQAGNIRLREDKDPIKMMATIYELKEDKSYDVTMVKFDDKKCMYDIWTFVPGSQPGEFTLGKIKSFPGHTSSLVRVVSTNYNQHAMVFFKFVFQNREEFYITLYGRTKELTSELKENFIRFSKSLGLPENHIVFPVPIDQCIDG
EC50 [4]: 0.26 nM | EC50 [5]: 7.47 nM | Kd [6]: 0.0006 nM | EC50 [7]: 0.16 nM | Kd [8]: 3.5 nM

B5: lipocalin mutein of SEQ ID NO: 8 (designed binder)
chain: QDSTSDLIPAPPLSKVPLQQNFQDNQFQGKWYVVGVAGNGMLREDKDPLKMRATIYELKEDKSYDVTSVAFRNKKCHYKIGTFVPGSQPGEFTLGQIKSGPGETSNLVRVVSTNYNQHAMVFFKEVRQNREWFFITLYGRTKELTSELKENFIRFSKSLGLPENHIVFPVPIDQCIDG
EC50 [7]: 0.24 nM
